Data published in EP4242225A1 (Consejo Superior De Investigaciones Científicas, dated 2023).

Legend:
Test in all cases: ELISA, biotin-labeled bispecific hcAb on plate-bound RBD-Fc
[1] = target: T1, RBD-Fc, kappa variant (B.1.617.1) (SARS-CoV-2; human, UniProt P0DTC2 332-534)
T1 construct: range 332-534; also called kappa RBD

[2] = target: T2, RBD-Fc, beta variant (B.1.351) (SARS-CoV-2; human, UniProt P0DTC2 332-534)
T2 construct: range 332-534; also called beta RBD

[3] = target: T3, RBD-Fc, gamma variant (B.1.1.28.1 or P.1) (SARS-CoV-2; human, UniProt P0DTC2 332-534)
T3 construct: range 332-534; also called gamma RBD

[4] = target: T4, RBD-Fc, delta variant (B.1.617.2) (SARS-CoV-2; human, UniProt P0DTC2 332-534)
T4 construct: range 332-534; also called delta RBD

Measured: binding result

B1: bispecific hcAb 1.29-1.10 (bispecific antibody)
heavy: QVQLVESGGGSVQAGGSLRLSCAASGYTINTDAVAWFRQAPGKGDERVAVIYTGSGNTNYADSVKGRFTISQDNAKNTVYLQMNSLKPEDTALYYCASGYYGASGYDFNNWGQGTQVTVSSGGGGSGGGGSGGGGSQVQLVESGGGSVQAGGSLRLSCAASGYTYSTCRKGWYRQAPGKERELVASITADGATYYLDSVKGRLTISQDNAKNTVYLQMNSLKPEDTAVYYCAASVKDFTCTFNSWGQGTQVTVSS
binds: [1] | [2] | [3] | [4]

B2: bispecific hcAb 1.29-1.26 (bispecific antibody)
heavy: QVQLVESGGGSVQAGGSLRLSCAASGYTINTDAVAWFRQAPGKGDERVAVIYTGSGNTNYADSVKGRFTISQDNAKNTVYLQMNSLKPEDTALYYCASGYYGASGYDFNNWGQGTQVTVSSGGGGSGGGGSGGGGSQVQLVESGGGLVQAGGSLRLSCAATGYTWSSVCMGWFRQAPGKEREGVAGIPSGRNRPYYADSVKGRFTISQDNAKNAVFLLMNSLKPEDTAIYYCAPCSAPHDPEYNYWGQGTQVTVSS
binds: [1] | [2] | [3] | [4]
